Reference: the supplement of paper PMC7877785
± gives the uncertainty stated by the source.

Test: self-splicing fitness, log relative to wild type (ln ratio); higher = more splicing; Tetrahymena group I intron in knt gene, E. coli kanamycin selection, DiMSum; sequences stand for … in CUCUCU…GGAGGGAAAAGUUAUCAGGCAUGCACCUGGUAGCUAGUCUUUAAACCAAUAGAUUGCAUCGGUUUAAAAGGCAAGACCGUCAAAUUGCGGGAAAGGGGUCAACAGCCGUUCAGUACCAAGUCUCAGGGGAAACUUUGAGAUGGCCUUGCAAAGGGUAUGGUAAUAAGCUGACGGACAUGGUCCUAACCACGCAGCCAAGUCCUAAGUCAACAGAUCUUCUGUUGAUAUGGAUGCAGUUCACAGACUAAAUGUCGGUCGGGGAAGAUGUAUUCUUCUCAUAAGAUAUAGUCGGACCUCUCCUUAAUGGGAGCUAGCGGAUGAAGUGAUGCAACACUGGAGCCGCUGGGAACUAAUUUGUAUGCGAAAGUAUAUUGAUUAGUUUUGGAGUACUCGUGGUCG
Procedure, shortened: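 Colonies from six replicate transformations of E. coli BL21(DE3) were pooled and amplicon-sequenced on an Illumina HiSeq 2500. The library placed an intron with all eight P1ex-region nucleotides randomised inside the knt kanamycin-resistance gene on pET-22b(+), and cells grew overnight at 37°C or 30°C on LB agar with or without 25 μg/mL kanamycin (plus 100 μg/mL carbenicillin, 50 μM IPTG, 0.2% rhamnose). Fitness is the DiMSum error-weighted combination of wild-type-normalised replicate fold changes, kanamycin versus none.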

Sequence	self-splicing fitness (ln) (30 °C)	self-splicing fitness (ln) (37 °C)
GUAUAGCAAUAUUACGUCCC	-1.75 ± 0.12	-0.594 ± 0.16
GUAUAGCAAUAUUACGUCUC	-1.21 ± 0.15	-0.282 ± 0.15
GUAUAGCAAUAUUACGUUAU	-3.09 ± 0.36	-1.99 ± 0.21
GUCAAGCAAUAUUACGAGUC	-3.75 ± 0.2	-2.87 ± 0.26
GUCAAGCAAUAUUACGCAGA	-3.23 ± 0.24	-2.79 ± 0.3
GUCAAGCAAUAUUACGCAUU	-1.21 ± 0.089	-1.02 ± 0.13
GUCAAGCAAUAUUACGCGCA	-0.483 ± 0.097	-0.0303 ± 0.11
GUCAAGCAAUAUUACGCUCA	-1.42 ± 0.11	-0.0833 ± 0.13
GUCAAGCAAUAUUACGGACG	-3.64 ± 0.27	-2.01 ± 0.13
GUCAAGCAAUAUUACGGAGG		-2.5 ± 0.25
GUCAAGCAAUAUUACGGAGU	-2.1 ± 0.12	-0.536 ± 0.12
GUCAAGCAAUAUUACGGAUU	-2.73 ± 0.12	-1.12 ± 0.12
GUCAAGCAAUAUUACGGCCU	-3.17 ± 0.22	-1.34 ± 0.21
GUCAAGCAAUAUUACGGGAA	-3.1 ± 0.19	-0.398 ± 0.12
GUCAAGCAAUAUUACGGGAC	-2.81 ± 0.5	
GUCAAGCAAUAUUACGGUCC	-2.23 ± 0.27	-1.09 ± 0.25
GUCAAGCAAUAUUACGGUUG	-5.24 ± 0.39	-3.24 ± 0.21
GUCAAGCAAUAUUACGUACU	-1.98 ± 0.13	-0.175 ± 0.12
GUCAAGCAAUAUUACGUCAA	-2.48 ± 0.1	-1.87 ± 0.11
GUCAAGCAAUAUUACGUCUU	-2.96 ± 0.071	-1.58 ± 0.066
GUCAAGCAAUAUUACGUUCA	-1.13 ± 0.1	-0.987 ± 0.16
GUCAAGCAAUAUUACGUUGC	-5.11 ± 0.34	-2.28 ± 0.21
GUCAAGCAAUAUUACGUUUC	-2.79 ± 0.13	-2.39 ± 0.16
GUCCAGCAAUAUUACGACGA	-2.69 ± 0.12	-0.712 ± 0.091
GUCCAGCAAUAUUACGACGC	-0.776 ± 0.094	0.435 ± 0.12

Sequence	self-splicing fitness (ln) (30 °C)	self-splicing fitness (ln) (37 °C)
GUCCAGCAAUAUUACGACUU	-1.65 ± 0.078	-0.203 ± 0.085
GUCCAGCAAUAUUACGAGUG	-2.52 ± 0.11	-1.59 ± 0.1
GUCCAGCAAUAUUACGAUAA	-1.3 ± 0.087	-0.506 ± 0.11
GUCCAGCAAUAUUACGAUGC	-0.013 ± 0.081	0.389 ± 0.1
GUCCAGCAAUAUUACGCAUC	-0.179 ± 0.089	0.142 ± 0.12
GUCCAGCAAUAUUACGCAUG	-2.14 ± 0.079	-1.66 ± 0.082
GUCCAGCAAUAUUACGCAUU	-0.492 ± 0.053	0.587 ± 0.073
GUCCAGCAAUAUUACGCCCA	0.224 ± 0.26	-0.451 ± 0.21
GUCCAGCAAUAUUACGCCGC	-4.18 ± 0.33	-2.58 ± 0.27
GUCCAGCAAUAUUACGCCUG	-2.5 ± 0.2	-0.12 ± 0.21
GUCCAGCAAUAUUACGCGCU	-2.67 ± 0.25	-2.51 ± 0.31
GUCCAGCAAUAUUACGGACG	-2.99 ± 0.26	-0.833 ± 0.18
GUCCAGCAAUAUUACGGACU	-3.74 ± 0.29	-3.05 ± 0.4
GUCCAGCAAUAUUACGGCGU	-0.257 ± 0.078	0.0026 ± 0.099
GUCCAGCAAUAUUACGGGGC	-4.08 ± 0.27	-1.8 ± 0.2
GUCCAGCAAUAUUACGGUGC	-0.903 ± 0.059	-0.726 ± 0.071
GUCCAGCAAUAUUACGUAAG	-0.607 ± 0.071	-0.277 ± 0.11
GUCCAGCAAUAUUACGUAAU	-0.156 ± 0.07	0.76 ± 0.081
GUCCAGCAAUAUUACGUACC	-1.08 ± 0.15	-1.74 ± 0.24
GUCCAGCAAUAUUACGUAGG	-2.31 ± 0.13	-1.84 ± 0.15
GUCCAGCAAUAUUACGUAUG	-2.76 ± 0.1	-1.06 ± 0.11
GUCGAGCAAUAUUACGAGCU	-2 ± 0.42	
GUCGAGCAAUAUUACGAGUA	-2.24 ± 0.45	-1.13 ± 0.25
GUCGAGCAAUAUUACGAUAA	-1.44 ± 0.26	-0.0833 ± 0.2
GUCGAGCAAUAUUACGAUAG	-4.14 ± 0.47	

Sequence	self-splicing fitness (ln) (30 °C)	self-splicing fitness (ln) (37 °C)
GUCGAGCAAUAUUACGAUCA	-1 ± 0.19	-0.515 ± 0.21
GUCGAGCAAUAUUACGAUUG	-4.1 ± 0.33	-3.26 ± 0.26
GUCGAGCAAUAUUACGCCCU		-0.627 ± 0.41
GUCGAGCAAUAUUACGCGCC	-2.74 ± 0.24	-1.87 ± 0.42
GUCGAGCAAUAUUACGCUAG	-3.53 ± 0.21	-1.93 ± 0.15
GUCGAGCAAUAUUACGCUAU	-2.01 ± 0.12	-1.36 ± 0.12
GUCGAGCAAUAUUACGCUCG	-1.76 ± 0.37	
GUCGAGCAAUAUUACGCUUA	-1.12 ± 0.13	-0.065 ± 0.12
GUCGAGCAAUAUUACGCUUG		-2.36 ± 0.33
GUCGAGCAAUAUUACGGAAU	-2.48 ± 0.16	-1.12 ± 0.14
GUCGAGCAAUAUUACGGAGC	-2.93 ± 0.2	-1.24 ± 0.15
GUCGAGCAAUAUUACGGCAG		-2.81 ± 0.44
GUCGAGCAAUAUUACGGGAA	-2.39 ± 0.34	-1.63 ± 0.37
GUCGAGCAAUAUUACGGGCG	-2.88 ± 0.11	-1.36 ± 0.12
GUCGAGCAAUAUUACGGGGC		-1.57 ± 0.28
GUCGAGCAAUAUUACGUGGU	-3.5 ± 0.19	-2.8 ± 0.19
GUCGAGCAAUAUUACGUUUC	-2.08 ± 0.21	-1.88 ± 0.2
GUCUAGCAAUAUUACGAAGA	-3.16 ± 0.24	-2.24 ± 0.2
GUCUAGCAAUAUUACGAAGC	-1.58 ± 0.18	-0.814 ± 0.18
GUCUAGCAAUAUUACGAAUU	-1.29 ± 0.077	-0.287 ± 0.098
GUCUAGCAAUAUUACGAGAU	-3.31 ± 0.26	-2.32 ± 0.22
GUCUAGCAAUAUUACGAGUC	-1.93 ± 0.11	-1.88 ± 0.093
GUCUAGCAAUAUUACGCAAC	-1.33 ± 0.087	-0.643 ± 0.095
GUCUAGCAAUAUUACGCCGG	-3.17 ± 0.33	-2.31 ± 0.33
GUCUAGCAAUAUUACGCGGC		-2.87 ± 0.4

Sequence	self-splicing fitness (ln) (30 °C)	self-splicing fitness (ln) (37 °C)
GUCUAGCAAUAUUACGCUAU	-1.54 ± 0.11	-0.228 ± 0.1
GUCUAGCAAUAUUACGCUUC	-1.25 ± 0.11	-0.47 ± 0.12
GUCUAGCAAUAUUACGGAAA	-0.658 ± 0.12	-0.44 ± 0.12
GUCUAGCAAUAUUACGGGCA	-3.1 ± 0.44	-1.43 ± 0.21
GUCUAGCAAUAUUACGGGGG	-2.58 ± 0.33	-1.46 ± 0.17
GUCUAGCAAUAUUACGGUUA	-0.904 ± 0.15	-0.443 ± 0.13
GUCUAGCAAUAUUACGUGAA	-0.302 ± 0.1	0.449 ± 0.097
GUCUAGCAAUAUUACGUGCC	-1.54 ± 0.24	-0.468 ± 0.28
GUCUAGCAAUAUUACGUUUC	-0.78 ± 0.057	-0.0328 ± 0.073
GUGAAGCAAUAUUACGAAAC	-1.66 ± 0.11	-0.943 ± 0.14
GUGAAGCAAUAUUACGACUA	-0.0623 ± 0.096	0.462 ± 0.14
GUGAAGCAAUAUUACGAUCU	-1.26 ± 0.13	-0.0185 ± 0.12
GUGAAGCAAUAUUACGCAAA	-2.12 ± 0.12	-1.52 ± 0.16
GUGAAGCAAUAUUACGCACU	-3.68 ± 0.47	-2.19 ± 0.29
GUGAAGCAAUAUUACGCAGA	-3.85 ± 0.25	-2.39 ± 0.25
GUGAAGCAAUAUUACGCAUU	-2.66 ± 0.27	-1.05 ± 0.15
GUGAAGCAAUAUUACGCGCG	-0.674 ± 0.083	0.0224 ± 0.12
GUGAAGCAAUAUUACGCUAA	-1.25 ± 0.15	-0.0384 ± 0.17
GUGAAGCAAUAUUACGCUAU	-1.95 ± 0.15	-0.0655 ± 0.15
GUGAAGCAAUAUUACGGCAA	0.587 ± 0.084	0.552 ± 0.11
GUGAAGCAAUAUUACGGGCG	-0.39 ± 0.052	-0.217 ± 0.065
GUGAAGCAAUAUUACGGGGA	-2.85 ± 0.22	-2.64 ± 0.29
GUGAAGCAAUAUUACGGGUC	-2.26 ± 0.21	-2.21 ± 0.28
